According to the supplement of paper PMC7877785:
± gives the uncertainty stated by the source.

Experiment: self-splicing fitness, log relative to wild type (ln ratio); higher = more splicing; Tetrahymena group I intron in knt gene, E. coli kanamycin selection, DiMSum; sequences stand for … in CUCUCU…GGAGGGAAAAGUUAUCAGGCAUGCACCUGGUAGCUAGUCUUUAAACCAAUAGAUUGCAUCGGUUUAAAAGGCAAGACCGUCAAAUUGCGGGAAAGGGGUCAACAGCCGUUCAGUACCAAGUCUCAGGGGAAACUUUGAGAUGGCCUUGCAAAGGGUAUGGUAAUAAGCUGACGGACAUGGUCCUAACCACGCAGCCAAGUCCUAAGUCAACAGAUCUUCUGUUGAUAUGGAUGCAGUUCACAGACUAAAUGUCGGUCGGGGAAGAUGUAUUCUUCUCAUAAGAUAUAGUCGGACCUCUCCUUAAUGGGAGCUAGCGGAUGAAGUGAUGCAACACUGGAGCCGCUGGGAACUAAUUUGUAUGCGAAAGUAUAUUGAUUAGUUUUGGAGUACUCGUGGUCG
Outline: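 Fitness was computed with DiMSum as the error-weighted combination of replicate fold changes, kanamycin versus none, each normalised to wild type. The library randomised all eight intron nucleotides of the P1ex region, with the intron placed in the knt kanamycin-resistance gene on pET-22b(+) in E. coli BL21(DE3). Six replicate transformations were grown overnight at 37°C or 30°C on LB agar with or without 25 μg/mL kanamycin, plus 100 μg/mL carbenicillin, 50 μM IPTG and 0.2% rhamnose. Pooled colonies were amplicon-sequenced on an Illumina HiSeq 2500.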

Row | Sequence | self-splicing fitness (ln) (30 °C) | self-splicing fitness (ln) (37 °C)
1 | UCGUAGCAAUAUUACGUAUU | -3.9 ± 0.28 | -0.594 ± 0.14
2 | UCGUAGCAAUAUUACGUCCA | -0.914 ± 0.16 | -0.15 ± 0.17
3 | UCGUAGCAAUAUUACGUCUA | -1.48 ± 0.1 | -0.978 ± 0.12
4 | UCGUAGCAAUAUUACGUGAG | -3.55 ± 0.19 | -1.35 ± 0.15
5 | UCGUAGCAAUAUUACGUGCA | -1.18 ± 0.094 | -1.14 ± 0.12
6 | UCGUAGCAAUAUUACGUGUA | -2.75 ± 0.12 | -0.347 ± 0.11
7 | UCGUAGCAAUAUUACGUUGA | -1.59 ± 0.16 | -0.942 ± 0.14
8 | UCGUAGCAAUAUUACGUUGC | -3.02 ± 0.47 | –
9 | UCGUAGCAAUAUUACGUUUG | -3.19 ± 0.18 | -1.56 ± 0.2
10 | UCUAAGCAAUAUUACGAAAU | -3.53 ± 0.32 | –
11 | UCUAAGCAAUAUUACGAAGU | -1.09 ± 0.11 | -1.07 ± 0.15
12 | UCUAAGCAAUAUUACGACGC | -0.443 ± 0.12 | -0.398 ± 0.21
13 | UCUAAGCAAUAUUACGAGUA | -2.23 ± 0.15 | -1.02 ± 0.14
14 | UCUAAGCAAUAUUACGAUUU | -2.92 ± 0.24 | -1.37 ± 0.16
15 | UCUAAGCAAUAUUACGCAGC | -1.83 ± 0.23 | -2.07 ± 0.31
16 | UCUAAGCAAUAUUACGCCCG | -0.879 ± 0.21 | 0.0184 ± 0.38
17 | UCUAAGCAAUAUUACGCGCA | -0.493 ± 0.11 | -0.561 ± 0.13
18 | UCUAAGCAAUAUUACGCUAA | -3.04 ± 0.19 | -1.84 ± 0.18
19 | UCUAAGCAAUAUUACGCUAC | – | -1.73 ± 0.45
20 | UCUAAGCAAUAUUACGCUUC | -3.47 ± 0.3 | -1.9 ± 0.31
21 | UCUAAGCAAUAUUACGGCAA | -1.94 ± 0.34 | -1.22 ± 0.21
22 | UCUAAGCAAUAUUACGGGAC | -3.56 ± 0.35 | -2.34 ± 0.4
23 | UCUAAGCAAUAUUACGGGAU | -2.77 ± 0.14 | -2.67 ± 0.18
24 | UCUAAGCAAUAUUACGGGUC | -2.67 ± 0.26 | -1.16 ± 0.37
25 | UCUAAGCAAUAUUACGGUCC | – | -0.662 ± 0.27

Row | Sequence | self-splicing fitness (ln) (30 °C) | self-splicing fitness (ln) (37 °C)
26 | UCUAAGCAAUAUUACGGUCG | -1.34 ± 0.095 | -0.375 ± 0.13
27 | UCUAAGCAAUAUUACGUAGG | -1.65 ± 0.093 | -1.24 ± 0.15
28 | UCUAAGCAAUAUUACGUCCG | -0.454 ± 0.15 | -0.55 ± 0.14
29 | UCUAAGCAAUAUUACGUCGC | -2.06 ± 0.23 | -1.22 ± 0.25
30 | UCUAAGCAAUAUUACGUCUU | -4.03 ± 0.27 | -4.18 ± 0.46
31 | UCUAAGCAAUAUUACGUGGG | -3.09 ± 0.19 | -1.92 ± 0.2
32 | UCUAAGCAAUAUUACGUUGC | -3.92 ± 0.34 | -2.81 ± 0.29
33 | UCUCAGCAAUAUUACGAACA | -1.41 ± 0.12 | -1.01 ± 0.13
34 | UCUCAGCAAUAUUACGAAGU | -2.33 ± 0.26 | -0.109 ± 0.16
35 | UCUCAGCAAUAUUACGAAUA | -2.57 ± 0.21 | -0.0366 ± 0.13
36 | UCUCAGCAAUAUUACGACGA | -0.256 ± 0.12 | -0.879 ± 0.13
37 | UCUCAGCAAUAUUACGACGU | -0.386 ± 0.07 | -0.541 ± 0.08
38 | UCUCAGCAAUAUUACGAGAA | -2.45 ± 0.29 | -0.803 ± 0.2
39 | UCUCAGCAAUAUUACGCAAA | -3.55 ± 0.4 | -1.59 ± 0.21
40 | UCUCAGCAAUAUUACGCAAC | -4.04 ± 0.39 | –
41 | UCUCAGCAAUAUUACGCACA | -1.72 ± 0.19 | -0.264 ± 0.15
42 | UCUCAGCAAUAUUACGCAUU | -0.39 ± 0.11 | -1.55 ± 0.15
43 | UCUCAGCAAUAUUACGCCGA | – | -0.855 ± 0.18
44 | UCUCAGCAAUAUUACGCCGU | -2.55 ± 0.25 | -1.56 ± 0.22
45 | UCUCAGCAAUAUUACGCCUA | -2.3 ± 0.19 | -1.22 ± 0.2
46 | UCUCAGCAAUAUUACGCGAG | -3.73 ± 0.37 | -0.582 ± 0.15
47 | UCUCAGCAAUAUUACGCGCA | -0.638 ± 0.16 | -0.617 ± 0.18
48 | UCUCAGCAAUAUUACGCUAC | -3.11 ± 0.35 | -2.14 ± 0.41
49 | UCUCAGCAAUAUUACGCUGA | -2.7 ± 0.25 | -3.19 ± 0.4
50 | UCUCAGCAAUAUUACGCUUA | -2.42 ± 0.31 | -2.93 ± 0.24

Row | Sequence | self-splicing fitness (ln) (30 °C) | self-splicing fitness (ln) (37 °C)
51 | UCUCAGCAAUAUUACGGAGC | -2.1 ± 0.47 | -2.27 ± 0.47
52 | UCUCAGCAAUAUUACGGCAC | -2.33 ± 0.24 | -1.79 ± 0.38
53 | UCUCAGCAAUAUUACGGGCU | -1.77 ± 0.18 | -2.43 ± 0.44
54 | UCUCAGCAAUAUUACGGGGU | -4.46 ± 0.37 | -2.8 ± 0.25
55 | UCUCAGCAAUAUUACGGGUC | -4.37 ± 0.34 | -1.52 ± 0.16
56 | UCUCAGCAAUAUUACGGUCG | -1.96 ± 0.15 | -0.825 ± 0.14
57 | UCUCAGCAAUAUUACGGUGU | -2.03 ± 0.086 | -1 ± 0.097
58 | UCUCAGCAAUAUUACGGUUG | -3.46 ± 0.17 | -2.41 ± 0.21
59 | UCUCAGCAAUAUUACGUACC | -3.25 ± 0.46 | -1.69 ± 0.25
60 | UCUCAGCAAUAUUACGUGCG | -3 ± 0.22 | -1.44 ± 0.18
61 | UCUCAGCAAUAUUACGUGGG | -3.43 ± 0.25 | -2.48 ± 0.21
62 | UCUCAGCAAUAUUACGUGUA | -1.47 ± 0.089 | -0.902 ± 0.08
63 | UCUGAGCAAUAUUACGACUG | -3.15 ± 0.27 | -2.26 ± 0.28
64 | UCUGAGCAAUAUUACGAGGC | -2.78 ± 0.35 | -2.39 ± 0.26
65 | UCUGAGCAAUAUUACGAUCA | -3.84 ± 0.4 | -2.38 ± 0.36
66 | UCUGAGCAAUAUUACGAUGA | -0.887 ± 0.12 | 0.0454 ± 0.18
67 | UCUGAGCAAUAUUACGCAGG | -2.76 ± 0.32 | -1.29 ± 0.21
68 | UCUGAGCAAUAUUACGCGAU | -3.14 ± 0.27 | -3.02 ± 0.25
69 | UCUGAGCAAUAUUACGCUCA | -2.29 ± 0.24 | -2.09 ± 0.28
70 | UCUGAGCAAUAUUACGCUUU | -3.64 ± 0.23 | -3.19 ± 0.19
71 | UCUGAGCAAUAUUACGGAUA | -3.08 ± 0.47 | -1.57 ± 0.25
72 | UCUGAGCAAUAUUACGGCAA | -2.44 ± 0.4 | -1.8 ± 0.35
73 | UCUGAGCAAUAUUACGGCCU | -3.3 ± 0.29 | -1.6 ± 0.3
74 | UCUGAGCAAUAUUACGGGAA | – | -1.82 ± 0.33
75 | UCUGAGCAAUAUUACGUACU | -2.66 ± 0.34 | -2.72 ± 0.48

Row | Sequence | self-splicing fitness (ln) (30 °C) | self-splicing fitness (ln) (37 °C)
76 | UCUGAGCAAUAUUACGUCUU | -2.36 ± 0.21 | -2.9 ± 0.24
77 | UCUUAGCAAUAUUACGAUAC | – | -3.06 ± 0.34
78 | UCUUAGCAAUAUUACGAUUA | -2.37 ± 0.24 | -1.34 ± 0.2
79 | UCUUAGCAAUAUUACGCCAU | -2.69 ± 0.3 | -2.26 ± 0.42
80 | UCUUAGCAAUAUUACGCCCA | – | -0.128 ± 0.47
81 | UCUUAGCAAUAUUACGCCUG | -2.25 ± 0.24 | -1.51 ± 0.27
82 | UCUUAGCAAUAUUACGCGUG | -3.05 ± 0.18 | -2.21 ± 0.15
83 | UCUUAGCAAUAUUACGCUCG | -0.481 ± 0.25 | -1.43 ± 0.44
84 | UCUUAGCAAUAUUACGCUGG | -2.64 ± 0.24 | -1.64 ± 0.23
85 | UCUUAGCAAUAUUACGGACG | -2.42 ± 0.3 | –
86 | UCUUAGCAAUAUUACGGACU | -2.76 ± 0.34 | -0.0771 ± 0.26
87 | UCUUAGCAAUAUUACGGCGU | -0.535 ± 0.15 | -1.19 ± 0.2
88 | UCUUAGCAAUAUUACGGGCG | -1.5 ± 0.14 | -0.448 ± 0.17
89 | UCUUAGCAAUAUUACGGGUU | -2.2 ± 0.15 | -1.61 ± 0.18
90 | UCUUAGCAAUAUUACGUCUA | -3.59 ± 0.31 | -2.19 ± 0.2
91 | UCUUAGCAAUAUUACGUGCA | -1.95 ± 0.12 | -1.07 ± 0.095
92 | UCUUAGCAAUAUUACGUUGG | -2.76 ± 0.18 | -2.65 ± 0.19
93 | UCUUAGCAAUAUUACGUUUC | -3.68 ± 0.24 | -2.8 ± 0.29
94 | UGAAAGCAAUAUUACGAAGU | -3.76 ± 0.21 | -2.96 ± 0.23
95 | UGAAAGCAAUAUUACGAAUA | -0.955 ± 0.098 | -0.396 ± 0.12
96 | UGAAAGCAAUAUUACGACCA | -0.558 ± 0.11 | 0.362 ± 0.14
97 | UGAAAGCAAUAUUACGACGU | -1.06 ± 0.065 | -0.131 ± 0.084
98 | UGAAAGCAAUAUUACGAUGC | – | -2.83 ± 0.41
